The source of these data is US20220073643A1 (NANJING GENSCRIPT BIOTECH, published 2022).

Positions count from the first letter of the chain named.

B1: 252C10F6 (antibody, V domains shown)
VH: QVHLKQSGRGLVQPSQSLSITCTVSGFSLPNYGVHWVRQPPGKGLEWLGVIWSGGNTDYNTVFKARLSITKDNSKSQVFFKMNSLQADDTAIYYCARNLYGNYDYAMDYWGQGTSVTVSS
VL: DIVMTQSPATLSVTPGDRVSLSCRASQSISDYLHWYQQKSHESPRLLIKYASQSISGIPSRFSGSGSGSEFTLSINSVEPEDVGVYYCQNGHSFPFTFGSGTKLEIK
notes: mouse hybridoma mAb
B2: 262C7C10 (antibody, V domains shown)
VH: QAYLQQSGAELVRSGASVKMSCKASGYTFTNYNIHWVKQTPGQGLEWIGYIYPGNGGNYYNQKFKGKATLTADTSSITAYMQISSLTSEDSAVYFCARDYYGNSFAYWGQGTLVTVSA
VL: DIVMTQSPSSLTVTAGEKVTMNCKSSQSLLNSGNQKNYLTWYQQKPGQPPKLLIYWASTRESGVPDRFTGSGSGTDFTLTISSVQAEDLAIYYCQNDYYYPLTFGAGTKLELK
notes: mouse hybridoma mAb
B3: 246B5F2 (IgM) (antibody, V domains shown)
VH: EVMLVESGGGLMKPGGSLKLSCAASEFTFSNYAMSWVRQTPEKRLEWVATISSGRSSTYYPDSVKGRFTISRDNAKNTLYLQMSSLRSEDTAMYYCAGLGRGNAMEYWGQGTSVTVSS
VL: B2 VL with M21L, N22S, T78I, S82N, I91V, D97A, Y99S, L102F, A106S, L112I
notes: mouse hybridoma mAb, IgM
B4: 254A8D5 (antibody, V domains shown)
VH: EVMLVESGGGLVKPGGSLKLSCAASGFTFSSYTVSWVRQTPEKRLEWVATSIVGSTYTYFPDSVKGRFTISRDFAKNTLFLQMSSLRSEDTAMYYCSRLGRGNAMDYWGQGTSVSVSS
VL: B2 VL with M21L, K24R, E87D, I91V, D97G, Y99S, L102F, A106S, L112I
notes: mouse hybridoma mAb
B5: 253E4F7 (antibody, V domains shown)
VH: EIQLQQSGPELMKPGASVKMSCKASGYSFTSYYIHWVKQSHGKSLEWIGYIDPFNGGTRYNQKFEGKATLTVDKSSTTAYMHLSSLTSEDSTVYYCASLRFLAYWGQGTLVTVSA
VL: B2 VL with N22T, L52V, Y55S, W56R, E61Q, I91V, Y99S
notes: mouse hybridoma mAb
B6: 242F5H2 (antibody, V domains shown)
VH: B4 VH
VL: B2 VL with M21L, K24R, E87D, I91V, D97G, Y99S, L102F, A106S, L112I
notes: mouse hybridoma mAb
B7: 268D7H9 (antibody, V domains shown)
VH: B2 VH with I77S
VL: B2 VL with V3A, K109T
notes: mouse hybridoma mAb
B8: 240A8E7 (antibody, V domains shown)
VH: B2 VH with G57D, I77S
VL: B2 VL with I2V, L52M, L102F
notes: mouse hybridoma mAb
B9: 263E9F3 (antibody, V domains shown)
VH: B5 VH with L4V, M20I, K23R, A24S, H41R, N55S, T92A, L102F
VL: B2 VL with N22T, K36E, K51E, Y55S, W56R, E61Q, A86T, I91V, Y99S
notes: mouse hybridoma mAb
B10: 240F8G2 (antibody, V domains shown)
VH: B2 VH with I77S
VL: B2 VL with M4V
notes: mouse hybridoma mAb
B11: 252E7C9 (antibody, V domains shown)
VH: QTYLQQSGAELVRSGASVKMSCRTSGYSFTSHNMHWVKQTPGQGLEWIGYIYPGNGGSYYNQKFKGKAILTADTSSSTAYMQISSLTSEDSAVYFCTRDYYGNSFVYWGQGTLVTVSA
VL: DVVMTQSPSSLTEKTGEKVSMSCKSSQSLLNSGNQKNYLTWYQQKPGQPPKLLIYWASTRESGVPDRFTGSGSGTDFTLTISSLQTEDLAIYYCQNNFRYPFTFGAGTKLELK
notes: mouse hybridoma mAb

The target of this assay is T1, human Claudin18.2 (human).
T1 construct: also called CLDN18.2
Kind of assay: cell ELISA, Claudin18.2-expressing HEK293T cells. The procedure, abridged:
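Claudin18.2-expressing HEK293T stable cells (1.5×10⁶ cells/ml in 5% skim milk/PBS blocking buffer) were incubated 1 h at room temperature in plates pre-blocked overnight at 4° C. EC₅₀ was derived by four-parameter curve fit.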
Consider B1, for which the concentration giving a half-maximal response (EC50) was approximately 12.5 nM. The figure for B2 is 1.77 nM. The figure for B3 is 6.59 nM. The molecule B4 registered an EC50 of 0.982 nM. On to B5, for which the half-maximal effective concentration (EC50) stood at 0.611 nM. The figure for B6 is approximately 0.403 nM; for B7 it is approximately 0.411 nM; for B8 it is 0.646 nM. Next, B9: 1.08 nM; B10: 0.88 nM; B11: approximately 0.37 nM.

What is called EC50 is the midpoint of the concentration-response curve. A higher EC50 goes with weaker potency.
